# From the supplement of paper PMC10567573
# B1: C10orf62 (parent)
# chain: TSECPSDKDKSPESHKAKNESWIK
# Variants of: B1
# Assay: protein stability index of a GFP-peptide fusion (GPS, HEK-293T) (PSI 1-6); higher = more stable
# Conditions: c terminus: a fixed tail appended
# 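Also: lentivirally expressed fusions sorted by FACS into six bins by GFP to DsRed ratio, PSI derived from sequencing read proportions per bin multiplied by bin number.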
row,Variant,protein stability index
1,TSECPSDKDKSPESHKSKNESWIK [A17S],3.48
2,TSECPSDKDKSPESHKTKNESWIK [A17T],3.14
3,TSECPSDKDKSPESHKVKNESWIK [A17V],3.37
4,TSECPSDKDKSPESHKWKNESWIK [A17W],3.5
5,TSECPSDKDKSPESHKYKNESWIK [A17Y],3.5
6,TSECPSDKDKSPESHKAANESWIK [K18A],3.67
7,TSECPSDKDKSPESHKACNESWIK [K18C],4.37
8,TSECPSDKDKSPESHKADNESWIK [K18D],3.84
9,TSECPSDKDKSPESHKAENESWIK [K18E],3.83
10,TSECPSDKDKSPESHKAFNESWIK [K18F],4.09
11,TSECPSDKDKSPESHKAGNESWIK [K18G],3.9
12,TSECPSDKDKSPESHKAHNESWIK [K18H],4.03
13,TSECPSDKDKSPESHKAINESWIK [K18I],3.01
14,TSECPSDKDKSPESHKALNESWIK [K18L],4.18
15,TSECPSDKDKSPESHKAMNESWIK [K18M],3.77
16,TSECPSDKDKSPESHKANNESWIK [K18N],3.6
17,TSECPSDKDKSPESHKAPNESWIK [K18P],3.74
18,TSECPSDKDKSPESHKAQNESWIK [K18Q],3.9
19,TSECPSDKDKSPESHKARNESWIK [K18R],3.51
20,TSECPSDKDKSPESHKASNESWIK [K18S],4.15
21,TSECPSDKDKSPESHKATNESWIK [K18T],4.02
22,TSECPSDKDKSPESHKAVNESWIK [K18V],3.56
23,TSECPSDKDKSPESHKAWNESWIK [K18W],3.26
24,TSECPSDKDKSPESHKAYNESWIK [K18Y],4.32

row,Variant,protein stability index
1,TSECPSDKDKSPESHKAKAESWIK [N19A],2.83
2,TSECPSDKDKSPESHKAKCESWIK [N19C],3.63
3,TSECPSDKDKSPESHKAKDESWIK [N19D],3.99
4,TSECPSDKDKSPESHKAKEESWIK [N19E],4.23
5,TSECPSDKDKSPESHKAKFESWIK [N19F],2.87
6,TSECPSDKDKSPESHKAKGESWIK [N19G],3.92
7,TSECPSDKDKSPESHKAKHESWIK [N19H],2.42
8,TSECPSDKDKSPESHKAKIESWIK [N19I],4.02
9,TSECPSDKDKSPESHKAKLESWIK [N19L],3.3
10,TSECPSDKDKSPESHKAKMESWIK [N19M],3.64
11,TSECPSDKDKSPESHKAKPESWIK [N19P],3.19
12,TSECPSDKDKSPESHKAKQESWIK [N19Q],3.13
13,TSECPSDKDKSPESHKAKRESWIK [N19R],2.84
14,TSECPSDKDKSPESHKAKSESWIK [N19S],3.97
15,TSECPSDKDKSPESHKAKTESWIK [N19T],2.94
16,TSECPSDKDKSPESHKAKVESWIK [N19V],3.41
17,TSECPSDKDKSPESHKAKWESWIK [N19W],3.46
18,TSECPSDKDKSPESHKAKYESWIK [N19Y],3.11
19,TSECPSDKDKSPESHKAKNASWIK [E20A],5.18
20,TSECPSDKDKSPESHKAKNCSWIK [E20C],4.47
21,TSECPSDKDKSPESHKAKNDSWIK [E20D],4.02
22,TSECPSDKDKSPESHKAKNFSWIK [E20F],4.74
23,TSECPSDKDKSPESHKAKNGSWIK [E20G],4.3
24,TSECPSDKDKSPESHKAKNHSWIK [E20H],4.51

row,Variant,protein stability index
1,TSECPSDKDKSPESHKAKNISWIK [E20I],4.38
2,TSECPSDKDKSPESHKAKNKSWIK [E20K],4.37
3,TSECPSDKDKSPESHKAKNLSWIK [E20L],4.56
4,TSECPSDKDKSPESHKAKNMSWIK [E20M],3.05
5,TSECPSDKDKSPESHKAKNNSWIK [E20N],4.69
6,TSECPSDKDKSPESHKAKNPSWIK [E20P],4.83
7,TSECPSDKDKSPESHKAKNQSWIK [E20Q],4.13
8,TSECPSDKDKSPESHKAKNRSWIK [E20R],4.09
9,TSECPSDKDKSPESHKAKNSSWIK [E20S],4.29
10,TSECPSDKDKSPESHKAKNTSWIK [E20T],4.39
11,TSECPSDKDKSPESHKAKNVSWIK [E20V],3.77
12,TSECPSDKDKSPESHKAKNWSWIK [E20W],4.72
13,TSECPSDKDKSPESHKAKNYSWIK [E20Y],4.2
14,TSECPSDKDKSPESHKAKNEAWIK [S21A],4.61
15,TSECPSDKDKSPESHKAKNECWIK [S21C],4.11
16,TSECPSDKDKSPESHKAKNEDWIK [S21D],5.57
17,TSECPSDKDKSPESHKAKNEEWIK [S21E],5.3
18,TSECPSDKDKSPESHKAKNEFWIK [S21F],5.12
19,TSECPSDKDKSPESHKAKNEGWIK [S21G],4.34
20,TSECPSDKDKSPESHKAKNEHWIK [S21H],4.95
21,TSECPSDKDKSPESHKAKNEIWIK [S21I],4.77
22,TSECPSDKDKSPESHKAKNEKWIK [S21K],4.84
23,TSECPSDKDKSPESHKAKNELWIK [S21L],3.65
24,TSECPSDKDKSPESHKAKNEMWIK [S21M],4.36

row,Variant,protein stability index
1,TSECPSDKDKSPESHKAKNENWIK [S21N],5.12
2,TSECPSDKDKSPESHKAKNEPWIK [S21P],3.56
3,TSECPSDKDKSPESHKAKNEQWIK [S21Q],4.62
4,TSECPSDKDKSPESHKAKNERWIK [S21R],4.9
5,TSECPSDKDKSPESHKAKNETWIK [S21T],3.97
6,TSECPSDKDKSPESHKAKNEVWIK [S21V],4.47
7,TSECPSDKDKSPESHKAKNEWWIK [S21W],4.49
8,TSECPSDKDKSPESHKAKNEYWIK [S21Y],4.3
9,TSECPSDKDKSPESHKAKNESAIK [W22A],5.34
10,TSECPSDKDKSPESHKAKNESCIK [W22C],5.18
11,TSECPSDKDKSPESHKAKNESDIK [W22D],5.78
12,TSECPSDKDKSPESHKAKNESEIK [W22E],5.67
13,TSECPSDKDKSPESHKAKNESFIK [W22F],5.62
14,TSECPSDKDKSPESHKAKNESGIK [W22G],5.58
15,TSECPSDKDKSPESHKAKNESHIK [W22H],5.83
16,TSECPSDKDKSPESHKAKNESIIK [W22I],5.72
17,TSECPSDKDKSPESHKAKNESKIK [W22K],5.46
18,TSECPSDKDKSPESHKAKNESLIK [W22L],4.7
19,TSECPSDKDKSPESHKAKNESMIK [W22M],5.6
20,TSECPSDKDKSPESHKAKNESNIK [W22N],5.73
21,TSECPSDKDKSPESHKAKNESPIK [W22P],5.54
22,TSECPSDKDKSPESHKAKNESQIK [W22Q],5.8
